Reference: paper PMC6312923 (Life Science Alliance, 2018)
Where no end group is shown, it is not given here. TAMRA = carboxytetramethylrhodamine

B1: p21 PIP box peptide (peptide)
peptide: RRQTSMTDFYHSKR
notes: p21 PIP box peptide
B2: Cdt2^600–730: C-terminal 130 amino acids of Cdt2 (protein)
chain: KDSLGPTKSSKIEGAGTSISEPPSPISPYASESCGTLPLPLRPCGEGSEMVGKENSSPENKNWLLAMAAKRKAENPSPRSPSSQTPNSRRQSGKKLPSPVTITPSSMRKICTYFHRKSQEDFCGPEHSTEL
modifications: left off: 3FLAG, N-terminal, kept | 3NLS, N-terminal, state not stated | myc, N-terminal, state not stated
notes: C-terminal 130 amino acids of Cdt2
B3: Cdt1^PIP-TAMRA (1–14) (peptide)
peptide: MEQRRVTDFFARRR
modifications: also: TAMRA label, position not given here
notes: Cdt1 N-terminal PIP box peptide, residues 1-14; also called Cdt1 PIP box peptide; source: synthetic peptide (in-house Fmoc synthesis)
B4: Cdt2^390–730: C-terminal Cdt2 construct (protein)
chain: LNRGLEEKPGGDKLSTVGWASQKKKESRPGLVTVTSSQSTPAKAPRAKCNPSNSSPSSAACAPSCAGDLPLPSNTPTFSIKTSPAKARSPINRRGSVSSVSPKPPSSFKMSIRNWVTRTPSSSPPITPPASETKIMSPRKALIPVSQKSSQAEACSESRNRVKRRLDSSCLESVKQKCVKSCNCVTELDGQVENLHLDLCCLAGNQEDLSKDSLGPTKSSKIEGAGTSISEPPSPISPYASESCGTLPLPLRPCGEGSEMVGKENSSPENKNWLLAMAAKRKAENPSPRSPSSQTPNSRRQSGKKLPSPVTITPSSMRKICTYFHRKSQEDFCGPEHSTEL
modifications: left off: 3FLAG, N-terminal, kept | 3NLS, N-terminal, state not stated | myc, N-terminal, state not stated
notes: C-terminal Cdt2 construct
B5: Cdt2^1–417: Cdt2 N-terminal WD40 domain construct (protein)
chain: MLFNSVLRQPQLGVLRNGWSSQYPLQSLLTGYQCSGNDEHTSYGETGVPVPPFGCTFSSAPNMEHVLAVANEEGFVRLYNTESQSFRKKCFKEWMAHWNAVFDLAWVPGELKLVTAAGDQTAKFWDVKAGELIGTCKGHQCSLKSVAFSKFEKAVFCTGGRDGNIMVWDTRCNKKDGFYRQVNQISGAHNTSDKQTPSKPKKKQNSKGLAPSVDFQQSVTVVLFQDENTLVSAGAVDGIIKVWDLRKNYTAYRQEPIASKSFLYPGSSTRKLGYSSLILDSTGSTLFANCTDDNIYMFNMTGLKTSPVAIFNGHQNSTFYVKSSLSPDDQFLVSGSSDEAAYIWKVSTPWQPPTVLLGHSQEVTSVCWCPSDFTKIATCSDDNTLKIWRLNRGLEEKPGGDKLSTVGWASQKKKESR
modifications: left off: HA, N-terminal, state not stated | 3FLAG, C-terminal, kept
notes: Cdt2 N-terminal WD40 domain construct
B6: Cdt2^PIP-TAMRA (704–717) (peptide)
peptide: {TAMRA}-SSMRKICTYFHRKS
notes: human Cdt2 PIP box, residues 704-717; also called Cdt2 PIP box peptide; source: synthetic peptide (in-house Fmoc synthesis)
B7: Cdt2^1–700: Cdt2 with the C-terminal 30 amino acids deleted (protein)
chain: MLFNSVLRQPQLGVLRNGWSSQYPLQSLLTGYQCSGNDEHTSYGETGVPVPPFGCTFSSAPNMEHVLAVANEEGFVRLYNTESQSFRKKCFKEWMAHWNAVFDLAWVPGELKLVTAAGDQTAKFWDVKAGELIGTCKGHQCSLKSVAFSKFEKAVFCTGGRDGNIMVWDTRCNKKDGFYRQVNQISGAHNTSDKQTPSKPKKKQNSKGLAPSVDFQQSVTVVLFQDENTLVSAGAVDGIIKVWDLRKNYTAYRQEPIASKSFLYPGSSTRKLGYSSLILDSTGSTLFANCTDDNIYMFNMTGLKTSPVAIFNGHQNSTFYVKSSLSPDDQFLVSGSSDEAAYIWKVSTPWQPPTVLLGHSQEVTSVCWCPSDFTKIATCSDDNTLKIWRLNRGLEEKPGGDKLSTVGWASQKKKESRPGLVTVTSSQSTPAKAPRAKCNPSNSSPSSAACAPSCAGDLPLPSNTPTFSIKTSPAKARSPINRRGSVSSVSPKPPSSFKMSIRNWVTRTPSSSPPITPPASETKIMSPRKALIPVSQKSSQAEACSESRNRVKRRLDSSCLESVKQKCVKSCNCVTELDGQVENLHLDLCCLAGNQEDLSKDSLGPTKSSKIEGAGTSISEPPSPISPYASESCGTLPLPLRPCGEGSEMVGKENSSPENKNWLLAMAAKRKAENPSPRSPSSQTPNSRRQSGKKLPSPVT
modifications: left off: HA, N-terminal, state not stated | 3FLAG, C-terminal, kept
notes: Cdt2 with the C-terminal 30 amino acids deleted

Columns and labels:
[1] = test system: CRL4Cdt2 (WT): Cdt2-3FLAG with Cul4A, DDB1, Rbx1;PCNA (Homo sapiens;Homo sapiens); experiment: pull-down (DNA beads, Western blot); conditions: PCNA preloaded by RFC with ATP; no Cdt1; 408 fmol Cdt2 on […] fmol PCNA trimer; biotin-dT in the second strand; single nick by Nb.BbvCI; HBS: 10 mM Hepes pH 7.4, 0.15 M NaCl, 10 mM MgCl2, 0.2 mM EDTA, 0.05% Tween 20; loading with 2 mM ATP, 37 C 1 h; Cdt1/CRL4Cdt2 binding 4 C 1 h
[2] = test system: Cdt1-3FLAG;PCNA (Homo sapiens;Homo sapiens); experiment: pull-down (DNA beads, Western blot); conditions: PCNA preloaded by RFC with ATP; 301 fmol Cdt1 on […] fmol PCNA trimer; biotin-dT in the second strand; single nick by Nb.BbvCI; HBS: 10 mM Hepes pH 7.4, 0.15 M NaCl, 10 mM MgCl2, 0.2 mM EDTA, 0.05% Tween 20; loading with 2 mM ATP, 37 C 1 h; Cdt1/CRL4Cdt2 binding 4 C 1 h
free PCNA = experiment: Binding of free PCNA to Cdt1 or CRL4^Cdt2 on anti-FLAG beads; design: species or system human; conditions: 2 h at 4°C, Western blotting, three independent experiments
From the text: FLAG-tagged Cdt1 (Cdt1-3FLAG) and CRL4^Cdt2 (Cdt2-3FLAG) were expressed in insect cells and purified on anti-FLAG resin (Fig 5A).

[3] = molecular target: T1, full-length human PCNA (recombinant, for peptide binding and crystallography) (human, UniProt P12004 1-261); experiment: fluorescence polarisation; 1 nM labelled peptide mixed with PCNA at 0 to 2 μM; 10 mM Hepes pH 7.5, 125 mM NaCl, 0.5 mM TCEP; non-binding 96-well plates; triplicates; conditions: both partners purified
T1 construct: PCNA, human, full length; also called recombinant PCNA; source: E. coli Bl21 (DE3), purified as described (Hibbert & Sixma, 2012)

PCNA = experiment: Co-immunoprecipitation of PCNA with FLAG-tagged Cdt2 constructs; format: cell-based, human; conditions: cross-linked cells, 3FLAG fusions, no UV
From the text: (§1) Before cell lysate preparation, cells were cross-linked.
(§2) Figure 3. […] HEK293 cells were transfected with plasmids expressing the indicated Cdt2 fused to a C-terminal FLAG tag, cross-linked, and precipitated with anti-FLAG antibodies (arrows). […] The bands in the blank lanes for Cul4A blotting correspond to the cross-reacting bands to pre-stained marker. […] HEK293 cells were transfected with the indicated plasmids and treated as in A. * indicates nonspecific bands derived from IgGs. (C) A schematic drawing of the Cdt2 domain structure highlighting the C-terminal PIP box and a sequence alignment of PIP boxes in various organisms. The alanine-changed PIP box mutant of Cdt2 was shown (PIP-3A) together with Cdt1 PIP box. (D) HEK293 cells were transfected with Cdt2^WT or PIP box mutant (Cdt2^PIP-3A) C-terminally fused to a FLAG tag, treated as in B, and Cdt2 was precipitated with anti-FLAG resin.
(§3) Control or Cdt2-FLAG expressing 293 cells that were UV irradiated (50 J/m^2), or not UV irradiated, or in the middle S phase (5 h after release from aphidicolon arrest) were fixed with 0.02% formaldehyde for 10 min, lysed using 0.1% Triton X-100-containing modified cytoskeleton (mCSK) buffer (10 mM Pipes, pH 7.9, 100 mM NaCl, 300 mM sucrose, 0.1% [vol/vol] Triton X-100, 1 mM phenylmethylsulfonyl fluoride, 10 mM β-glycerophosphate, 1 mMNa3VO4, 10 mM NaF), and then sonicated. After centrifugation (120,000g, Beckman Type 45Ti rotor, for 20 min at 4°C), the supernatants were mixed with anti-FLAG antibody-conjugated magnetic beads (M8823; Sigma-Aldrich) for 1 h at 4°C to obtain immunoprecipitates. The precipitate was washed with ice-cold 0.1% Triton X-100 containing mCSK buffer and subsequently suspended in SDS sample buffer.

[4] = test system: MCF7 cells, DNA-damage (CPD) sites; experiment: Recruitment of GFP-Cdt2 constructs to DNA-damage sites in MCF7 cells; format: cell-based, human; conditions: MCF7, UV-C 50 J/m^2, GFP fusions; two independent experiments
From the text: Figure 2. The C-terminus of Cdt2 mediates Cdt2 recruitment to sites of damage. (A) A schematic drawing of the domain structure of Cdt2 and constructs used. (B) The C-terminal, but not the N-terminal, part of Cdt2 mediates recruitment to DNA damage sites. MCF7 cells transfected with the indicated plasmids were locally UV-C irradiated (50 J/m^2 through 5 μm pore diameter micropore filters), and recruitment of each Cdt2 construct to sites of damage was examined by staining with α-CPD antibody and GFP signal.
For Western blotting, whole-cell lysates were prepared by lysing cell pellets directly in SDS–PAGE buffer. For immunofluorescence, U2OS or HEK293 cells were fixed in 4% paraformaldehyde (PFA; WAKO) for 10 min, permeabilized in 0.25% (vol/vol) Triton X-100 in PBS, and stained with the indicated antibodies as described previously. […] For cyclobutane pyrimidine dimer (CPDs) staining, MCF7 and HeLa cells were fixed in 4% PFA for 10 min, permeabilized in 0.3% Triton X-100 in PBS, and then incubated in 0.5 N NaOH for 5 min for DNA denaturation before immunofluorescence. Alexa488-conjugated anti-mouse and […] anti-rabbit antibodies were used as secondary antibodies with Hoechst 33258 to visualize DNA. […] Protein levels were analysed by ImageJ software.
We used a method to induce DNA photoproducts within localized areas of the cell nucleus as described in Ishii et al (2010). To perform micropore UV irradiation, cells were cultured on cover slips, washed twice with PBS, and subsequently covered with an isopore polycarbonate membrane filter (Millipore) with a pore size of either 3 or 5 μm in diameter, and irradiated. UV irradiation was achieved using a UV lamp (SUV-16, As One, Japan) with a dose rate of 0.4 J/m^2·s, which was monitored with a UV radiometer (UVX Radiometer, UVP) at 254 nm, or with a UV box equipped with a UV-C lamp monitored with a VLX-3W radiometer (Vilber Lourmat) at 254 nm (CX-254 sensor). The filter was removed and cells were either fixed or cultured for the indicated time before fixation, and processed for immunofluorescence. […]

DDB1, Cul4A = experiment: Co-immunoprecipitation of DDB1 / Cul4A with FLAG-tagged Cdt2 constructs; format: cell-based, human; conditions: anti-FLAG IP, cross-linked cells
From the text: as §1, §2, §3

T1 sequence (P12004 whole entry): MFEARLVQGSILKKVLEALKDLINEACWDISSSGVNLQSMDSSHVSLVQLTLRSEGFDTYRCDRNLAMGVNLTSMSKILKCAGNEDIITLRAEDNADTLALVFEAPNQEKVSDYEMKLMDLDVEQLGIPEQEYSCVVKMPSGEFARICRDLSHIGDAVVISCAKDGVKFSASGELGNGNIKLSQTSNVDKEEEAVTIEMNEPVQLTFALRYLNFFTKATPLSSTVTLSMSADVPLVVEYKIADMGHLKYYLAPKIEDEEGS

Row | Molecule | Kd [3] [nM] | interaction with PCNA (anti-FLAG IP) (PCNA) | other results
1 | ncDNA beads (singly nicked circular pBluescript II KS(-)) |  |  | binding signal (Cdt2 per PCNA trimer) [1]: 2.57; binding signal (Cdt1 per PCNA trimer) [2]: 2.04
2 | CRL4^Cdt2: E3 ligase complex of Cdt2-3FLAG, DDB1, HA-Cul4, His-myc-Rbx1, purified from insect cells |  |  | binding of free PCNA to protein beads (free PCNA): much less
3 | B1 | 36 ± 2 |  | 
4 | B2 |  | sufficient to mediate the interaction with PCNA | 
5 | B3 | 7200 ± 200 |  | 
6 | B4 |  | still binds to PCNA | recruitment to DNA-damage sites [4]: efficiently recruited to DNA-damage sites; binding to DDB1 (and Cul4A) (DDB1, Cul4A): lost its ability to bind DDB1
7 | B5 |  | lost most of its affinity for PCNA | recruitment to DNA-damage sites [4]: no evidence for recruitment; binding to DDB1 (and Cul4A) (DDB1, Cul4A): still able to bind DDB1
8 | B6 | 57 ± 3 |  | 
9 | B7 |  | loss of interaction with PCNA | 
